Assay results as given in PMC10057929, “Improvement of Laccase Production by Thielavia terrestris Co3Bag1. Enhancing the Bio-Catalytic Performance of the Native Thermophilic TtLacA via Immobilization in Copper Alginate Gel Beads” (Journal of Fungi, 2023).

Substrate: CCn1c(=NN=c2sc3cc(S(=O)(=O)O)ccc3n2CC)sc2cc(S(=O)(=O)O)ccc21
Assay: purified protein
Format: biochemical, Thermothielavioides terrestris
Settings: free enzyme, pH 3.0 glycine-HCl, 65 °C, 5 min, 0.05 to 5 mM ABTS

B1: TtLacA (Thermothielavioides terrestris NRRL 8126) (protein)
chain: MGLLRGLLESVSETLELFYTATATLTQESTNGLSLLGTLLARVLPLFLTNNPLPDGFPWGSLSDTNTNPYVDYPRTGVVRYYDFTVSRGIIAPDGYQRDVLLVNGAYPGPLIEANWGDTIVVTVHNNISNPEDGTTIHWHGFLQRETPWADGAPGISQCPIPPGSSYTYEFVASLFGTSWYHAHYSAQYAGGVVGPIVVYGPTHAKYDVDLGPIMLSDWYHREYFDIVKELLSPNASPRVLSDNNLIDGKMNFDCSTVAPGDNTPCTDRAGISKFKFQTGKTHRLRLINSGADGVQRFSIDQHTLTVIAEDFVPVKPYNTTVVTLGVGQRTDVLVTANAGPPDSLFWMRSNLTTCSPARQPNALAAVYYDKADTSATPSSRPWDVPDPGTCANDPLDISEPLYPIPLPKPAITQTMDIELFKNASNVTLWKFNGVSMRTDYNSPVILLANQGNFSYPPEWNVVNYQQTTAIRIIINNKGPGPHPMHLHGHNFYILHEGPGEWDGTIVRPSNPMRRDVELVRGNGHLVIQFDGAPGVWAFHCHIAWHSSGGFLASLLVQPHKVQQMHLPGDVEQNCRAWDLWTKHNVVDQIDSGT
notes: native secreted enzyme purified from culture supernatant, free (not immobilised); 70 kDa by SDS-PAGE; MS/MS peptides QPNALAAVYYDK, YDVDLGPIMLSDWYHR, VLSDNNLIDGK, LINSGADGVQR
- Km: 260 µM
- kcat: 13.73 s⁻¹
